# From patent publication US20240150440A1 (LUMEN BIOSCIENCE, published 2024)
# Where two headings read alike, the source gives them in different places.
# B1: PP1141 MBP-4B0F-PAPA-R5d-D4-H6 (VHH)
# VHH: QVQLVESGGGLVQPGGSLRLSCAASGSDFTINAMHWFRQAPGKQREFVATITSTSSTAYRDSVKGRFTISRDNAKNTVYLQMNSLKPEDTAVYYCAAFAVRDADTAGWTARDYWGQGTQVTVSS
# notes: Form: Heptamer
# B2: MBP-5HVZ-R5d-E1-H6 (VHH, not shown: large carriers; small tags and cut ends)
# VHH: QVQLVESGGGLVQPGGSLRLSCAASGSSFSINWMHWFRQAPGKQREGVASINSTGSDYYADSVKGRFTISRDNAKNTVYLQMNSLKPEDTAVYYCAAAITQPMPQGKGAPPGFYYWGQGTQVTVSS
# B3: PP887 MBP-S1b-E7-H6 (VHH)
# VHH: QVQLVESGGGLVQPGGSLRLSCAASGGEFSDNGLHWFRQAPGKQREFVATASSDGSTQYRDSVKGRFTISRDNAKNTVYLQMNSLKPEDTAVYYCTALLMSSAGEYDVWGQGTQVTVSS
# notes: Form: Monomer
# B4: PP888 MBP-S1b-E11-H6 (VHH)
# VHH: QVQLVESGGGLVQPGGSLRLSCAASGSYASIASMHWFRQAPGKEREFVAGVTSGGSTNYGDSVKGRFTISRDNAKNTVYLQMNSLKPEDTAVYYCNALAGANYESQWEEYNYWGQGTQVTVSS
# notes: Form: Monomer
# B5: R5A-B7 (competition ELISA sample) (VHH)
# VHH: QVQLVESGGGLVQPGGSLRLSCAASGAFFSYGAIHWFRQAPGKQREEVAAITSGGSTGYADSVKGRFTISRDNAKNTVYLQMNSLKPEDTAVYYCNAGVVWLPSNAAYNLWGQGTQVTVSS
# B6: PP806 MBP-R2B-E6-H6 (VHH)
# VHH: QVQLVESGGGLVQPGGSLRLSCAASGGVTRGNAMAWYRQAPGKQREIVAAIDNGGSHAYGDSVKGRFTISRDNAKNTVYLQMNSLKPEDTAVYYCAVFPDHDSEQASIDRVYWGQGTQVTVSS
# notes: Form: Monomer
# B7: dimeric VHH (VHH-5HVZ-MBP) R2B-E6 (VHH)
# VHH: B6 VHH
# B8: MBP-5HVZ-R5B-G1-H6 (VHH)
# VHH: QVQLVESGGGLVQPGGSLRLSCAASGSIGQIVLVHWFRQAPGKQRELVAGITSPSSTYYADSVKGRFTISRDNAKNTVYLQMNSLKPEDTAVYYCNTELEGKTQGFTGKTVWYDYWGQGTQVTVSS
# B9: PP1150 MBP-5HVZ-PAPA-R5b-G1-H6 (VHH)
# VHH: B8 VHH
# notes: Form: Dimer
# B10: MBP-R2B-D5-H6 (VHH)
# VHH: QVQLVESGGGLVQPGGSLRLSCAASGYADEINMVHWYRQAPGKGREFVAAIASGGSTFYADSVKGRFTISRDNAKNTVYLQMNSLKPEDTAVYYCAAIPRPSLSYAHDYAYWGQGTQVTVSS
# notes: monomer
# B11: MBP-5HVZ-R5A-E5-H6 (VHH, not shown: large carriers; small tags and cut ends)
# VHH: QVQLVESGGGLVQPGGSLRLSCAASGYDFDILRMAWFRQAPGKEREMVAAITSAESVNYEDSVKGRFTISRDNAKNTVYLQMNSLKPEDTAVYYCATYDYTDDYGYASWGQGTQVTVSS
# B12: PP1152 MBP-5HVZ-PAPA-R5d-B6-H6 (VHH)
# VHH: QVQLVESGGGLVQPGGSLRLSCAASGRILAANIVHWYRQAPGKEREGVAGITSGGGSYYADSVKGRFTISRDNAKNTVYLQMNSLKPEDTAVYYCNALGLGQSSLYRSADPYDSWGQGTQVTVSS
# notes: Form: Dimer
# B13: PP1140 MBP-4B0F-PAPA-R5d-B6-H6 (VHH)
# VHH: B12 VHH
# notes: Form: Heptamer
# B14: MBP-5HVZ-R5C-B1-H6 (VHH, not shown: large carriers; small tags and cut ends)
# VHH: QVQLVESGGGLVQPGGSLRLSCAASGSGFSNNAMHWYRQAPGKQREGVAGITSGSVSFYADSVKGRFTISRDNAKNTVYLQMNSLKPEDTAVYYCAAVTGSSTGNAGQGYLTWGQGTQVTVSS
# B15: PP788 (VHH, not shown: large carriers; small tags and cut ends)
# VHH: QVQLVESGGGLVQPGGSLRLSCAASGSIESINAIHWFRQAPGKAREEVAAITENDVDYYADSVKGRFTISRDNAKNTVYLQMNSLKPEDTAVYYCASLSSGYQYVGFRYWGQGTQVTVSS
# Assays:
# [1] = target: T1, recombinant SARS-CoV-2 RBD with C-terminal AviTag (SARS-CoV-2, UniProt P0DTC2 319-541); assay: ELISA, competition with coated ACE2-Fc for RBD [Cont. 5]
# [2] = target: T1, recombinant SARS-CoV-2 RBD with …
# [3] = target: T1, recombinant SARS-CoV-2 RBD with …; assay: BLI, biotinylated RBD on streptavidin biosensors; OR: over-range [Cont. 6]
# [4] = target: T1, recombinant SARS-CoV-2 RBD with …; assay: BLI, biotinylated RBD on streptavidin biosensors; OR: over-range [Cont. 7]
# [5] = target: T1, recombinant SARS-CoV-2 RBD with …; remark: listed apart in the source
# [6] = target: T1, recombinant SARS-CoV-2 RBD with …; assay: BLI, biotinylated RBD on streptavidin biosensors; OR: over-range
# [7] = target: T1, recombinant SARS-CoV-2 RBD with …; assay: ELISA, competition with coated ACE2-Fc for RBD
# [8] = target: T1, recombinant SARS-CoV-2 RBD with …; assay: BLI, biotinylated RBD on streptavidin biosensors
# [9] = target: T1, recombinant SARS-CoV-2 RBD with …; assay: ELISA, competition with coated ACE2-Fc for RBD [Cont. 3]
# [10] = target: T2, SARS-COV-2 Wuhan Reference RBD (SARS-CoV-2, UniProt P0DTC2 319-541); assay: ELISA, RBD coated
# [11] = target: T1, recombinant SARS-CoV-2 RBD with …; remark: listed apart in the source
# [12] = target: T1, recombinant SARS-CoV-2 RBD with …; remark: listed apart in the source
# [13] = target: T1, recombinant SARS-CoV-2 RBD with …; assay: ELISA, competition with coated ACE2-Fc for RBD [Cont. 4]
# [14] = target: T1, recombinant SARS-CoV-2 RBD with …; remark: listed apart in the source
# [15] = target: T2, SARS-COV-2 Wuhan Reference RBD
binder,measurement,setting,value
B1,IC50,[1],74.6 nM
B2,Kd,[2],7.98 nM
B3,Kd,[3],~6570 nM
B4,Kd,[4],~5290 nM
B5,Kd,[5],13.1 nM
B6,Kd,[6],~1400 nM
B7,IC50,[7],17.9 nM
same,Kd,[8],10.3 nM
B8,IC50,[9],26.6 nM
B9,IC50,[9],5.2 nM
same,EC50,[10],0.64 nM
B10,Kd,[8],82 nM
B11,IC50,[11],17.7 nM
same,Kd,[11],31 nM
same,Kd,[12],~31 nM
B12,IC50,[13],4.7 nM
B13,IC50,[1],106 nM
B14,Kd,[12],10 nM
same,IC50,[14],0.3 nM
same,Kd,[14],9.98 nM
B15,EC50,[15],1.56 nM
